In this series the target is T1, His-Fur (Vibrio cholerae C7258 (El Tor; Peru, 1991)) (UniProt P0C6C8).
T1 sequence: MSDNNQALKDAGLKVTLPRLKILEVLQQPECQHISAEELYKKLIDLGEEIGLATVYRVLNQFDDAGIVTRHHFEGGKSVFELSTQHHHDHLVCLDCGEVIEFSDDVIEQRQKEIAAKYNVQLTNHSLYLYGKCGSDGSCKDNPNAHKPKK
Nature of the series: EMSA. The note with it: 10 mM Tris-HCl pH 7.5, 50 mM KCl, 1 mM MgCl2, 100 uM MnCl (so in the source), 0.5 mM DTT, 0.05 mg/ml BSA, 10 mg/ml salmon sperm DNA; room temperature, 20 min (EMSA …). In general terms: Mobility shift assays separate free from complexed probe on a gel.

On to “CACTTCTTCGCCTTCTTTGATTGCGCCAGTACGGCGAATATCCAAACGAACAGAAGCGTAGAATTTCAGTGCGTTACCGCCAGTGGTGGTTTCTGGGTTACCAAACATCACACCAATCTT (double strand) [recA fragment (negative control)]”, for which the binding result is listed as “no binding”.

The values are drawn from paper PMC7641913.
